B1: Hairpin Ribozyme (parent)
chain: GUCCUCUUUCACGUGCGCGUGAAAGAGAGAAGUGAACCAGAGAAACACACGUUGUGGUAUAUUACCUGGUA

Variants of: B1
Assay: self-cleavage, relative activity (ratio to wild type); higher = more cleavage; co-transcriptional

Variant | self-cleavage
U2G C46U | 0.11
U2C A22G | 0.0938
C3A A22C | 0.593
U2A A71C | 0.656
U2A A71U | 0.186
U2C C46A | 0.232
U2A C65U | 0.128
U2A A44C | 0.0634
U2A A44U | 0.0374
U2A A30U | 0.0131
U2A C37G | 0.123
C3A G56A | 0.127
C3A G56U | 0.162
U2C G57U | 0.131
U2C A39G | 0.0933
U2C A39C | 0.0668
U2G C3A | 0.786
C3A U52A | 0.7
C3A C18A | 0.634
C3A C18U | 0.717
U2A C18A | 0.23
U2A A45C | 0.154
U2A A45G | 0.0349
U2A A36U | 0.144

Variant | self-cleavage
U2A A36G | 0.194
U2C A71C | 0.444
G1U U52C | 0.261
U2A U7A | 0.331
C3A A71U | 0.517
C3A A71C | 1.11
G1U G54C | 0.176
U2G C16G | 0.267
U2G C16U | 0.478
U2G U53A | 0.195
G1U C16A | 0.111
U2G A44C | 0.108
C3A U9C | 0.532
C3A U9A | 0.401
C3A U9G | 0.576
C3A A59G | 0.0686
C3A A59C | 0.121
U2G G34A | 0.37
C3A A39G | 0.192
C3A A39C | 0.328
C3A A39U | 0.252
U2C U62A | 0.0408
G1U G27A | 0.148
U2A U5G | 0.166

Variant | self-cleavage
C3A C48G | 0.158
C3A C48U | 0.112
C3A C46U | 0.111
U2C C6A | 0.0756
U2C C6G | 0.0983
U2C C6U | 0.245
U2C U70A | 0.241
G1U G17U | 0.162
G1U C4G | 0.213
C3A U8C | 0.427
C3A A43U | 0.179
C3A A43C | 0.0772
U2G U9G | 0.206
U2G U9A | 0.242
U2A C4U | 0.0895
G1U C50U | 0.0718
U2A A28G | 0.434
U2C A31C | 0.226
C3A G29U | 0.0763
U2G G69U | 0.116
U2G G69A | 0.109
G1U C48A | 0.134
U2G G17U | 0.327
U2G G17A | 0.529

Variant | self-cleavage
U2C U7G | 0.105
U2C U7C | 0.246
C3A A30C | 0.14
C3A A30G | 0.146
C3A G57C | 0.169
U2C C37G | 0.0267
C3A C38A | 0.215
U2A G25U | 0.204
G1U U60G | 0.259
U2C C50A | 0.0705
U2C C50G | 0.144
G1U G13U | 0.156
G1U G13C | 0.151
U2G G57U | 0.209
G1U U70C | 0.142
U2G U58G | 0.255
U2G U58A | 0.263
G1U U9G | 0.224
G1U U9C | 0.0677
U2A A26G | 0.321
G1U U7A | 0.131
G1U U7G | 0.088
U2A A47C | 0.183
U2A A47G | 0.102

Variant | self-cleavage
C3A C12U | 0.59
U2G A43U | 0.102
U2G A43G | 0.21
G1U U2G | 0.22
G1U G57A | 0.175
U2G U62G | 0.11
U2G U62C | 0.0918
U2A A64U | 0.0942
U2A A23C | 0.262
U2G A61C | 0.109
U2G A61G | 0.15
C3A C65U | 0.222
G1U U20A | 0.1
C3A G69C | 0.342
C3A C6U | 0.471
U2A G34U | 0.665
U2A G42U | 0.122
U2A G42C | 0.145
U2C C3U | 0.131
U2C C3G | 0.214
C3A G13C | 0.51
C3A U7C | 0.621
C3A G42C | 0.214
C3A A35G | 0.897

Variant | self-cleavage
C3A A35U | 0.479
U2G G51C | 0.359
G1U G56U | 0.0984
G1U U8A | 0.144
G1U U8G | 0.0482
U2G G54C | 0.155
U2G A64C | 0.165
U2G A64G | 0.159
C3A A36C | 0.497
U2G U8C | 0.255
U2G G25C | 0.137
G1U U67A | 0.105
U2G U67C | 0.102
U2C C16G | 0.246
U2C C65G | 0.0439
U2C C65U | 0.162
C3A U33A | 0.0769
U2A C12A | 0.171
U2A C12U | 0.166
U2A C12G | 0.175
G1U U62A | 0.147
U2C A61U | 0.0427
U2A U70C | 0.288
G1U A71C | 0.273

Variant | self-cleavage
C3A G54C | 0.206
C3A G54A | 0.351
U2C A30U | 0.0598
U2C A30C | 0.185
U2C A35C | 0.159
U2C A59C | 0.0741
U2C A59G | 0.173
U2A A61C | 0.0595
C3A U5A | 0.214
U2A U58A | 0.164
U2G A47C | 0.358
U2G A47G | 0.0815
U2A C66A | 0.124
U2A C50U | 0.113
U2G U20G | 0.186
U2G U20C | 0.385
U2G U20A | 0.225
U2C G42U | 0.203
U2G G19A | 0.311
G1U C18G | 0.131
U2G C66U | 0.163
U2A C38A | 0.115
U2A C38G | 0.121
